# Like-named read-outs stand apart in the source and are kept apart here.
# Columns and labels:
# [1] = Degradation rate of parathyroid hormone in solution ± disodium citrate, by high pressure liquid chromatography; type: physicochemical; conditions: 1 mg/mL parathyroid hormone ± disodium citrate, pH 3, 40° C.
# Protocol: Determine the degradation rates of parathyroid hormone (1 mg/mL; 0.24 mM)±disodium citrate at pH 3 at 40° C. In separate aliquots, incubate with the following amounts of disodium citrate ([…]; 57.3 μg/mL, 0.24 mM; and 5.73 μg/mL, 0.024 mM). Include a control aliquot containing parathyroid hormone lacking disodium citrate. High pressure liquid chromatography is used to measure the degradation of parathyroid hormone at various time points.
# [2] = aqueous solution, general indicator of proton affinity, cited from earlier work
substance,measurement,setting,value
parathyroid hormone,retention of activity (degradation by HPLC),[1],retains more activity in the citrate solution
same,pKa of C-terminal carboxylate,[2],≈ 3.5
same,pKa of carboxylate sidechains of aspartic and glutamic acid,[2],≈ 4.8
same,pKa of C-terminal carboxylate,[2]; listed as PTH,3.5
same,pKa of carboxylate sidechains of aspartic and glutamic acid,[2]; listed as PTH,4.8
